In paper PMC11237551, “MRS2 missense variation at Asp216 abrogates inhibitory Mg^2+ binding, potentiating cell migration and apoptosis resistance” (Protein Science : A Publication of the Protein Society, 2024):
Positions count from the first letter of the chain named. Names and notes keep the numbering of the source.

Columns and labels:
[1] = molecular target: the molecule itself; test: SEC-MALS; Superdex 200 Increase 10/300 GL, 100 uL injected at 2.5 mg/mL, 20 mM Tris pH 8, 150 mM NaCl, 1 mM DTT, ~10°C, buffer nominally free of Mg2+
[2] = molecular target: the molecule itself; test: AUC; sedimentation equilibrium, 0.313 mg/mL protein, no Mg2+, 20°C, 20 mM Tris, 150 mM NaCl, 1 mM DTT, pH 8.0; global fit of 8000, 12,000, 16,000 and 20,000 rpm; dimer to monomers
[3] = molecular target: the molecule itself; test: AUC; sedimentation equilibrium, 1.25 mg/mL protein, with 5 mM MgCl2, 20°C, 20 mM Tris, 150 mM NaCl, 1 mM DTT, pH 8.0; global fit of 8000, 12,000, 16,000 and 20,000 rpm; dimer to monomers
[4] = molecular target: the molecule itself; test: AUC; sedimentation equilibrium, 0.313 mg/mL protein, with 5 mM MgCl2, 20°C, 20 mM Tris, 150 mM NaCl, 1 mM DTT, pH 8.0; global fit of 8000, 12,000, 16,000 and 20,000 rpm; dimer to monomers
[5] = molecular target: the molecule itself; test: AUC; sedimentation equilibrium, 0.625 mg/mL protein, with 5 mM MgCl2, 20°C, 20 mM Tris, 150 mM NaCl, 1 mM DTT, pH 8.0; global fit of 8000, 12,000, 16,000 and 20,000 rpm; dimer to monomers
[6] = molecular target: the molecule itself; test: AUC; sedimentation equilibrium, 0.625 mg/mL protein, no Mg2+, 20°C, 20 mM Tris, 150 mM NaCl, 1 mM DTT, pH 8.0; global fit of 8000, 12,000, 16,000 and 20,000 rpm; dimer to monomers
[7] = molecular target: the molecule itself; test: AUC; sedimentation equilibrium, 1.25 mg/mL protein, no Mg2+, 20°C, 20 mM Tris, 150 mM NaCl, 1 mM DTT, pH 8.0; global fit of 8000, 12,000, 16,000 and 20,000 rpm; dimer to monomers

B1: human MRS2 amino terminal domain, residues 58-333 (MRS2_(58‐333)), wild type (domain or fragment, UniProt Q9HD23-1 58-333, looked up)
chain: DRLRVAGEVHRFRTSDVSQATLASVAPVFTVTKFDKQGNVTSFERKKTELYQELGLQARDLRFQHVMSITVRNNRIIMRMEYLKAVITPECLLILDYRNLNLEQWLFRELPSQLSGEGQLVTYPLPFEFRAIEALLQYWINTLQGKLSILQPLILETLDALVDPKHSSVDRSKLHILLQNGKSLSELETDIKIFKESILEILDEEELLEELCVSKWSDPQVFEKSSAGIDHAEEMELLLENYYRLADDLSNAARELRVLIDDSQSIIFINLDSHRN
notes: Mitochondrial RNA splicing protein 2 (MRS2), human, amino terminal (matrix) domain, residues 58-333 of NCBI NP_065713.1 (pre-protein numbering); theoretical monomer 32.5 kDa including cloning artifacts; Surmise: E. coli, His tag removed by protease; also called MRS2‐NTD; WT; source: recombinantly expressed and purified, as described previously (Uthayabalan et al., 2023)
stoichiometry N [1]: 2 | Kd [2]: 17.4 µM | stoichiometry N [2]: 1.7 | Kd [3]: 55.4 µM | stoichiometry N [3]: 1.5 | Kd [4]: 1760 µM | stoichiometry N [4]: 1 | Kd [5]: 146 µM | stoichiometry N [5]: 1.1 | Kd [6]: 24.3 µM | stoichiometry N [6]: 1.6 | Kd [7]: 16.4 µM | stoichiometry N [7]: 1.7

B2: human MRS2 amino terminal domain, residues 58-333, D216Q mutant (MRS2_(58‐333)‐D216Q) (domain or fragment, UniProt Q9HD23-1 58-333, looked up)
chain: B1 chain with D159Q
notes: theoretical monomer 32,517 Da; construct details in Uthayabalan et al., 2023; also called MRS2‐NTD‐D216Q; source: recombinantly expressed and purified as described for MRS2_(58‐333) (Uthayabalan et al., 2023)
Kd [3]: 33.6 µM | stoichiometry N [3]: 1.6 | Kd [4]: 11.2 µM | stoichiometry N [4]: 2 | Kd [5]: 22.2 µM | stoichiometry N [5]: 1.8

B3: human MRS2 amino terminal domain, residues 58-333, E261Q mutant (MRS2_(58‐333)‐E261Q) (domain or fragment, UniProt Q9HD23-1 58-333, looked up)
chain: B1 chain with E204Q
notes: construct details in Uthayabalan et al., 2023; also called MRS2‐NTD‐E261Q; source: recombinantly expressed and purified as described for MRS2_(58‐333) (Uthayabalan et al., 2023)
stoichiometry N [1]: 2
